From patent US20150344570A1 (published 2015) come the findings set out here.

Holding throughout (assay): SPR (Biacore); KD of H240-Kn061/H240-Hl071/L73-k0 divided by KD of the variant
In experiment [1] the target is T1, FcgRIIb (FcγRIIb) extracellular domain with C-terminal His tag (human, UniProt P31994 43-217).
T1 construct: extracellular domain; not shown: His tag attached to the C terminus
T1 sequence (looked up): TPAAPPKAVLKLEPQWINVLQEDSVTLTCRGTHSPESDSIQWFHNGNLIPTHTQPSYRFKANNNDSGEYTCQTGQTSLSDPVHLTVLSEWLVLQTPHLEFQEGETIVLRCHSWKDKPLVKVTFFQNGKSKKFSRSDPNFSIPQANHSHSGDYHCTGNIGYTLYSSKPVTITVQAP
Here is the method:
(§1) The antibodies were assessed for the binding to each FcgR. […] The resultant value was defined as relative KD, and used as an assessment indicator.
(§2) Analysis of interaction between objective antibody and the FcγR was carried out using Biacore T100 (GE Healthcare), Biacore T200, Biacore A100, and Biacore 4000. HBS-EP+ (GE Healthcare) was used as the running buffer, and the measurement temperature was set to 25° C. Chips produced by immobilizing the antigen peptide by the amine coupling method to a Series S sensor Chip CM5 (GE Healthcare), chips produced by allowing preliminarily biotinylated antigen peptides to interact with and immobilize onto a Series S Sensor Chip SA (certified) (GE Healthcare), chips produced by immobilizing Protein L (ACTIGEN, BioVision) to Series S Sencor Chip CM5 (GE Healthcare), or chips produced by immobilizing Protein A/G (Thermo Scientific) to Series S Sencor Chip CM5 (GE Healthcare) were used. Antibodies of interest were captured onto these chips, and allowed to interact to each FcγR diluted with running buffer.

Experiment [2] addresses T2, FcgRIIIa F (FcγRIIIa type F) extracellular domain with C-terminal His tag (human, UniProt P08637 17-208).
T2 construct: extracellular domain; also called FcγRIIIa F; 3aF; not shown: His tag attached to the C terminus
Here is the method:
as §1, §2

The target of experiment [3] is T3, FcgRIIIa V (FcγRIIIa type V) extracellular domain with C-terminal His tag (human, UniProt P08637 17-208).
T3 construct: extracellular domain; also called FcγRIIIa V; not shown: His tag attached to the C terminus
T3 sequence (P08637 17-208 F176V limits assumed): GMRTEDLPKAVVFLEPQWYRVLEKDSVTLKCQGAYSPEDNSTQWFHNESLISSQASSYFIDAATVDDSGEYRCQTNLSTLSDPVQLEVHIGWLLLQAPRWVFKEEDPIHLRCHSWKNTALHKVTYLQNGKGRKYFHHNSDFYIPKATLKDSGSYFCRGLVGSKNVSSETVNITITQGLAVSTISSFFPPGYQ
As to the method:
as §1, §2

T2 sequence (P08637 17-208): as the sequence (P08637 17-208 F176V limits assumed) above, with V160F counted along it

B1: H240-Kn061/H240-Hl071/L73-k0 variant with Y235L in H240-Kn061 (antibody, human IgG1, kappa)
heavy 1: QDQLVQSGAEVKKPGASVKVSCKASGFNIKDTYIQWVRQAPGQGLEWMGRIDPLRKQTKYREKFEGRVTITADTSTNTAYMELSSLRSEDTAVYYCVRSGREFDYWGQGTLVTVSSASTKGPSVFPLAPSSKSTSGGTAALGCLVKDYFPEPVTVSWNSGALTSGVHTFPAVLQSSGLYSLSSVVTVPSSSLGTQTYICNVNHKPSNTKVDKKVEPKSCDKTHTCPPCPAPEYLWGPSVFLFPPKPKDTLMISRTPEVTCVVVDVSDEDPEVKFNWYVDGVEVHNAKTKPREEQYNATYRVVSVLTVLHQDWLNGKEYKCKVSNKALPAPIEKTISKAKGQPREPQVCTLPPSRDELTKNQVSLWCLVKGFYPSDIAVEWESNGQPENNYKTTPPVLDSDGSFFLYSKLTVDKSRWQQGNVFSCSVMHEALHNHYTQKSLSLSP
heavy 2: QDQLVQSGAEVKKPGASVKVSCKASGFNIKDTYIQWVRQAPGQGLEWMGRIDPLRKQTKYREKFEGRVTITADTSTNTAYMELSSLRSEDTAVYYCVRSGREFDYWGQGTLVTVSSASTKGPSVFPLAPSSKSTSGGTAALGCLVKDYFPEPVTVSWNSGALTSGVHTFPAVLQSSGLYSLSSVVTVPSSSLGTQTYICNVNHKPSNTKVDKKVEPKSCDKTHTCPPCPAPELLGGPSVFLFPPKPKDTLMISRTPEVTCVVVDVSHEDPEVKFNWYVDGVEVHNAKTKPREEQYNSTYRVVSVLTVLHQDWLNGKEYKCKVSNDALPMPIEETISKAKGQPREPQVYTLPPSRCELTKNQVSLSCAVKGFYPSDIAVEWESNGQPENNYKTTPPVLDSDGSFFLVSKLTVDKSRWQQGNVFSCSVMHEALHNHYTQKSLSLSP
light: DIQMTQSPSSLSASVGDRVTITCRASQDIHKYIAWYQQKPGQAPRLLIQYTSTLQPGVPSRFSGSGSGTDYTFTISSLQPEDIATYYCLQYEQLRTFGGGTKVEIKRTVAAPSVFIFPPSDEQLKSGTASVVCLLNNFYPREAKVQWKVDNALQSGNSQESVTEQDSKDSTYSLSSTLTLSKADYEKHKVYACEVTHQGLSSPVTKSFNRGEC
notes: anti-epiregulin heterodimerized IgG1; also called H240-Kn061 Y235L
With B1, the “relative KD” value in experiment [1] is 0.9 ratio; in experiment [2] it was 1.8 ratio; in experiment [3], 1.5 ratio.

B2: H240-Kn061/H240-Hl071/L73-k0 variant with Y235T in H240-Kn061 (antibody, human IgG1, kappa)
heavy 1: QDQLVQSGAEVKKPGASVKVSCKASGFNIKDTYIQWVRQAPGQGLEWMGRIDPLRKQTKYREKFEGRVTITADTSTNTAYMELSSLRSEDTAVYYCVRSGREFDYWGQGTLVTVSSASTKGPSVFPLAPSSKSTSGGTAALGCLVKDYFPEPVTVSWNSGALTSGVHTFPAVLQSSGLYSLSSVVTVPSSSLGTQTYICNVNHKPSNTKVDKKVEPKSCDKTHTCPPCPAPEYTWGPSVFLFPPKPKDTLMISRTPEVTCVVVDVSDEDPEVKFNWYVDGVEVHNAKTKPREEQYNATYRVVSVLTVLHQDWLNGKEYKCKVSNKALPAPIEKTISKAKGQPREPQVCTLPPSRDELTKNQVSLWCLVKGFYPSDIAVEWESNGQPENNYKTTPPVLDSDGSFFLYSKLTVDKSRWQQGNVFSCSVMHEALHNHYTQKSLSLSP
heavy 2: QDQLVQSGAEVKKPGASVKVSCKASGFNIKDTYIQWVRQAPGQGLEWMGRIDPLRKQTKYREKFEGRVTITADTSTNTAYMELSSLRSEDTAVYYCVRSGREFDYWGQGTLVTVSSASTKGPSVFPLAPSSKSTSGGTAALGCLVKDYFPEPVTVSWNSGALTSGVHTFPAVLQSSGLYSLSSVVTVPSSSLGTQTYICNVNHKPSNTKVDKKVEPKSCDKTHTCPPCPAPELLGGPSVFLFPPKPKDTLMISRTPEVTCVVVDVSHEDPEVKFNWYVDGVEVHNAKTKPREEQYNSTYRVVSVLTVLHQDWLNGKEYKCKVSNDALPMPIEETISKAKGQPREPQVYTLPPSRCELTKNQVSLSCAVKGFYPSDIAVEWESNGQPENNYKTTPPVLDSDGSFFLVSKLTVDKSRWQQGNVFSCSVMHEALHNHYTQKSLSLSP
light: DIQMTQSPSSLSASVGDRVTITCRASQDIHKYIAWYQQKPGQAPRLLIQYTSTLQPGVPSRFSGSGSGTDYTFTISSLQPEDIATYYCLQYEQLRTFGGGTKVEIKRTVAAPSVFIFPPSDEQLKSGTASVVCLLNNFYPREAKVQWKVDNALQSGNSQESVTEQDSKDSTYSLSSTLTLSKADYEKHKVYACEVTHQGLSSPVTKSFNRGEC
notes: anti-epiregulin heterodimerized IgG1; also called H240-Kn061 Y235T
Consider B2, for which the “relative KD” value in experiment [1] came to 0.6 ratio; in experiment [2] it was 0.9 ratio; in experiment [3], 1.1 ratio.

B3: H240-Kn061/H240-Hl071/L73-k0 variant with Y235N in H240-Kn061 (antibody, human IgG1, kappa)
heavy 1: QDQLVQSGAEVKKPGASVKVSCKASGFNIKDTYIQWVRQAPGQGLEWMGRIDPLRKQTKYREKFEGRVTITADTSTNTAYMELSSLRSEDTAVYYCVRSGREFDYWGQGTLVTVSSASTKGPSVFPLAPSSKSTSGGTAALGCLVKDYFPEPVTVSWNSGALTSGVHTFPAVLQSSGLYSLSSVVTVPSSSLGTQTYICNVNHKPSNTKVDKKVEPKSCDKTHTCPPCPAPEYNWGPSVFLFPPKPKDTLMISRTPEVTCVVVDVSDEDPEVKFNWYVDGVEVHNAKTKPREEQYNATYRVVSVLTVLHQDWLNGKEYKCKVSNKALPAPIEKTISKAKGQPREPQVCTLPPSRDELTKNQVSLWCLVKGFYPSDIAVEWESNGQPENNYKTTPPVLDSDGSFFLYSKLTVDKSRWQQGNVFSCSVMHEALHNHYTQKSLSLSP
heavy 2: QDQLVQSGAEVKKPGASVKVSCKASGFNIKDTYIQWVRQAPGQGLEWMGRIDPLRKQTKYREKFEGRVTITADTSTNTAYMELSSLRSEDTAVYYCVRSGREFDYWGQGTLVTVSSASTKGPSVFPLAPSSKSTSGGTAALGCLVKDYFPEPVTVSWNSGALTSGVHTFPAVLQSSGLYSLSSVVTVPSSSLGTQTYICNVNHKPSNTKVDKKVEPKSCDKTHTCPPCPAPELLGGPSVFLFPPKPKDTLMISRTPEVTCVVVDVSHEDPEVKFNWYVDGVEVHNAKTKPREEQYNSTYRVVSVLTVLHQDWLNGKEYKCKVSNDALPMPIEETISKAKGQPREPQVYTLPPSRCELTKNQVSLSCAVKGFYPSDIAVEWESNGQPENNYKTTPPVLDSDGSFFLVSKLTVDKSRWQQGNVFSCSVMHEALHNHYTQKSLSLSP
light: DIQMTQSPSSLSASVGDRVTITCRASQDIHKYIAWYQQKPGQAPRLLIQYTSTLQPGVPSRFSGSGSGTDYTFTISSLQPEDIATYYCLQYEQLRTFGGGTKVEIKRTVAAPSVFIFPPSDEQLKSGTASVVCLLNNFYPREAKVQWKVDNALQSGNSQESVTEQDSKDSTYSLSSTLTLSKADYEKHKVYACEVTHQGLSSPVTKSFNRGEC
notes: anti-epiregulin heterodimerized IgG1; also called H240-Kn061 Y235N
In the case of B3, the entries for the “relative KD” value in experiment [1], in experiment [2] and in experiment [3] were 0.7 ratio, 1.3 ratio and 2 ratio, respectively.

B4: H240-Kn061/H240-Hl071/L73-k0 variant with Y235M in H240-Kn061 (antibody, human IgG1, kappa)
heavy 1: QDQLVQSGAEVKKPGASVKVSCKASGFNIKDTYIQWVRQAPGQGLEWMGRIDPLRKQTKYREKFEGRVTITADTSTNTAYMELSSLRSEDTAVYYCVRSGREFDYWGQGTLVTVSSASTKGPSVFPLAPSSKSTSGGTAALGCLVKDYFPEPVTVSWNSGALTSGVHTFPAVLQSSGLYSLSSVVTVPSSSLGTQTYICNVNHKPSNTKVDKKVEPKSCDKTHTCPPCPAPEYMWGPSVFLFPPKPKDTLMISRTPEVTCVVVDVSDEDPEVKFNWYVDGVEVHNAKTKPREEQYNATYRVVSVLTVLHQDWLNGKEYKCKVSNKALPAPIEKTISKAKGQPREPQVCTLPPSRDELTKNQVSLWCLVKGFYPSDIAVEWESNGQPENNYKTTPPVLDSDGSFFLYSKLTVDKSRWQQGNVFSCSVMHEALHNHYTQKSLSLSP
heavy 2: QDQLVQSGAEVKKPGASVKVSCKASGFNIKDTYIQWVRQAPGQGLEWMGRIDPLRKQTKYREKFEGRVTITADTSTNTAYMELSSLRSEDTAVYYCVRSGREFDYWGQGTLVTVSSASTKGPSVFPLAPSSKSTSGGTAALGCLVKDYFPEPVTVSWNSGALTSGVHTFPAVLQSSGLYSLSSVVTVPSSSLGTQTYICNVNHKPSNTKVDKKVEPKSCDKTHTCPPCPAPELLGGPSVFLFPPKPKDTLMISRTPEVTCVVVDVSHEDPEVKFNWYVDGVEVHNAKTKPREEQYNSTYRVVSVLTVLHQDWLNGKEYKCKVSNDALPMPIEETISKAKGQPREPQVYTLPPSRCELTKNQVSLSCAVKGFYPSDIAVEWESNGQPENNYKTTPPVLDSDGSFFLVSKLTVDKSRWQQGNVFSCSVMHEALHNHYTQKSLSLSP
light: DIQMTQSPSSLSASVGDRVTITCRASQDIHKYIAWYQQKPGQAPRLLIQYTSTLQPGVPSRFSGSGSGTDYTFTISSLQPEDIATYYCLQYEQLRTFGGGTKVEIKRTVAAPSVFIFPPSDEQLKSGTASVVCLLNNFYPREAKVQWKVDNALQSGNSQESVTEQDSKDSTYSLSSTLTLSKADYEKHKVYACEVTHQGLSSPVTKSFNRGEC
notes: anti-epiregulin heterodimerized IgG1; also called H240-Kn061 Y235M
For B4, the entries for the “relative KD” value in experiment [1], in experiment [2] and in experiment [3] were 0.7 ratio, 1.7 ratio and 1.8 ratio, respectively.
